From paper PMC6431053, “Enzyme kinetics of dUTPase from the planarian Dugesia ryukyuensis” (BMC Research Notes, 2019)

Tests used:
purified protein [1] = substrate: Cc1cn([C@H]2C[C@H](O)[C@@H](COP(=O)(O)OP(=O)(O)OP(=O)(O)O)O2)c(=O)[nH]c1=O; assay: purified protein; type: biochemical, Dugesia ryukyuensis; details: 5 mM MgCl2, 100 mM KCl, 0.25 mM Bicine, pH 8.2, 100 µM nucleotide, 4–6 µM enzyme, n = 3
purified protein [2] = substrate: O=c1ccn([C@H]2C[C@H](O)[C@@H](COP(=O)(O)OP(=O)(O)OP(=O)(O)O)O2)c(=O)[nH]1; assay: purified protein; type: biochemical, Dugesia ryukyuensis; details: 5 mM MgCl2, 100 mM KCl, 0.25 mM Bicine, pH 8.2, 25 °C, 10 µM dUTP, n = 7, kcat assumes three active sites per trimer, 25.0 °C

B1: Dr-dUTPase (Dugesia ryukyuensis; R66K) (protein)
chain: MSALKVLRFKKLSENATVPSRGSVLAAGFDLCSAENCVIPARGKQLVKTDIQISLPEGCYGRVAPKSGLALKHFIDVGAGVIDQDYRGNVGIVMFNFSENEFPISKGDRIAQLICERIYTPELLECESLDETERGEGGYGSTGINNSSQKNGH
notes: full-length 153 aa ORF, codon-optimized, pET-15b, E. coli BL21(DE3); His-tag cut by thrombin, N-terminal GSH left; 156 aa, 16,807 Da; R66K (G197A) removes internal thrombin site
Purified protein [1]
  Km: 1.1 × 10^2 ± 7.2 μM
  kcat: 1.4 ± 0.3 s⁻¹
  kcat/Km: 13000 ± 2800 M⁻¹ s⁻¹
Purified protein [2]
  Km: 4.0 ± 0.4 µM
  kcat: 34 s⁻¹
  kcat/Km: 8.5e+06 ± 1.1e+06 M⁻¹ s⁻¹
